From US20230340081A1 (Hoffmann-La Roche, published 2023)
Positions count from the first letter of the chain named.

B1: Bv4.115 (antibody)
heavy: not shown
light: DIQMTQSPSTLSASVGDRVTITCRASQSINTWLAWYQQKPGKAPKLLISKASSLESGVPSRFSGSGSGTEFTLSISSLQPDDFATYYCQQYNTFSFGQGTKLEIKRTVAAPSVFIFPPSDEQLKSGTASVVCLLNNFYPREAKVQWKVDNALQSGNSQESVTEQDSKDSTYSLSSTLTLSKADYEKHKVYACEVTHQGLSSPVTKSFNRGEC
B2: Bc1.229 (antibody, V domains shown)
VH: QVQLVESGGGVVQPGRSLRVSCAASGFTFSNYGMHWVRQAPGKGLEWLAVIWNDGSNKYYADSVKGRFIISRDNSKNTLYLQMNSLGAEDTAMYYCAREGLTSVTMLDSWGQGALVTVSS
VL: DIQMTQSPSSLSASVGDRVTITCRASQYISSFLNWYQQKPGKAPKLLIHVASSLQSGVPSRFSGSGSGTHFTLTISSLQPEDFATYYCQQSYSTPLFTFGPGTKVDIKR
B3: Bc1.187 (antibody, human IgG1, kappa)
heavy: not shown
light: DIQMTQSPSSLSAYVGDRVTITCRASQRISTYLNWYHQRPGKSPSLLIYGASSLQSGVPSRFSASASGTDFTLTISSLRPEDLGTYYCQQTYTLPPNSGGGTKVEIKRTVAAPSVFIFPPSDEQLKSGTASVVCLLNNFYPREAKVQWKVDNALQSGNSQESVTEQDSKDSTYSLSSTLTLSKADYEKHKVYACEVTHQGLSSPVTKSFNRGEC
notes: also called Bcl.187; Bc1.187_huIgG1_wt
B4: Bc8.111 (antibody)
heavy: not shown
light: QSVLTQPHSVSESPGKTVTISCTRSSGSIASNYVQWYQQRPGSAPTTVIYEDNERPSGVPARFSGSIDSSSNSASLTISGLKTEDEADYYCQSYESSNWVFGGGTKLTVLGQPKAAPSVTLFPPSSEELQANKATLVCLISDFYPGAVTVAWKADSSPVKAGVETTTPSKQSNNKYAASSYLSLTPEQWKSHRSYSCQVTHEGSTVEKTVAPTECS
B5: Bv4.105 (antibody, V domains shown)
VH: QVQLVESGGGLVQSGRSLRLSCSAFGFTFGDYPIMWVRLAPGKGLEWVGFIRSKAYGGTAEYAASVKGRFTTSRDDSRSTAYLQMNSLKTEDTAVYYCTREGGHSGFWSGFNKIPTFDYWGQGSLVTVSS
VL: DIQMTQSPSSLSASIGDRVSITCRASETIRTYLNWYQHKPGKAPQLLIYAASSVQSGVPSRFSGSGSGTDFTLTISNLQPEDFATYYCQQSYTSPWVTFGPGTKVDIKR
B6: Bc1.128 (antibody)
heavy: not shown
light: DIQLTQSPSSLSASVGDRVTITCRASQGIRSDLGWYQQKPGKAPKRLIYGASNLQRGVPSRFSGSGSGTEFTLTISSLQPEDFASYYCLQHNSFPWTFGQGTKVEIKRTVAAPSVFIFPPSDEQLKSGTASVVCLLNNFYPREAKVQWKVDNALQSGNSQESVTEQDSKDSTYSLSSTLTLSKADYEKHKVYACEVTHQGLSSPVTKSFNRGEC
B7: Bc1.263 (antibody, human IgG1, kappa, V domains shown)
VH: QVQLVQSGAEVKKPGSSVKVSCRASGGTFSNYGVNWVRQAPGQGLEWMGKIIPILGIVNYAQKFQGRVTITADKSTSTAYMELSSLRSEDTAVYYCARDRGGKPLYSYGYGLDYWGQGTLVTVSS
VL: EIVLTQSPATLSLSPGERATLSCRASLSVSTYLAWYQKKPGQPPRLLIYDASKRATGIPARFSGSGSGTDFTLTISSLEPEDFAVYYCQQRSTTFGQGTKVEIKR

molecular target: T1, consensus S-HBs protein of HBV genotype H (ConsHBAg_H) (hepatitis B virus genotype H (consensus), UniProt Q8JMZ6 175-400); assay: flow cytometry, S-HBs-transfected 293-F cells
T1 construct: also called genotype H S-HBs
T1 sequence (Q8JMZ6 175-400, tags left off): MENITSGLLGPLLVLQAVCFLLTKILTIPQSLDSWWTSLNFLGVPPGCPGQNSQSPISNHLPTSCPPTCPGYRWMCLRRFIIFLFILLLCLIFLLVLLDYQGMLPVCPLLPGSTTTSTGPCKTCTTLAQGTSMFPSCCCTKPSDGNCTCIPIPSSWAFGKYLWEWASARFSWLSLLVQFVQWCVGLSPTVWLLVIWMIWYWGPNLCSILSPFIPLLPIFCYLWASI

Row | Binder | % of bound S-HBs-expressing cells
1 | B1 | 77%
2 | B2 | 74%
3 | B3 | 59%
4 | B4 | 67%
5 | B5 | 55%
6 | B6 | 59%

molecular target: genotype D S-HBs mutant protein Y134V (hepatitis B virus genotype D, UniProt P03138 164-389); assay: flow cytometry, S-HBs-transfected 293-F cells

Row | Binder | % of bound S-HBs-expressing cells
7 | B1 | 66%
8 | B2 | 67%
9 | B3 | 57%
10 | B4 | 56%
11 | B6 | 47%

molecular target: genotype D S-HBs mutant protein N146S (hepatitis B virus genotype D, UniProt P03138 164-389); assay: flow cytometry, S-HBs-transfected 293-F cells

Row | Binder | % of bound S-HBs-expressing cells
12 | B1 | 67%
13 | B2 | 56%
14 | B3 | 48%
15 | B4 | 55%
16 | B6 | 46%

molecular target: T2, consensus S-HBs protein of HBV genotype D (ConsHBAg_D) (hepatitis B virus genotype D (consensus), UniProt P03138 164-389); assay: flow cytometry, S-HBs-transfected 293-F cells
T2 construct: also called genotype D S-HBs; ConsD S-HBs

Row | Binder | % of bound S-HBs-expressing cells
17 | B1 | 89%
18 | B2 | 73%
19 | B3 | 66%
20 | B4 | 71%
21 | B6 | 64%

molecular target: T3, consensus S-HBs protein of HBV genotype A (ConsHBAg_A) (hepatitis B virus genotype A (consensus), UniProt P03141 175-400); assay: flow cytometry, S-HBs-transfected 293-F cells
T3 construct: also called genotype A S-HBs

Row | Binder | % of bound S-HBs-expressing cells
22 | B1 | 88%
23 | B2 | 75%
24 | B3 | 73%
25 | B4 | 65%
26 | B5 | 21%
27 | B6 | 64%

molecular target: T4, consensus S-HBs protein of HBV genotype B (ConsHBAg_B) (hepatitis B virus genotype B (consensus), UniProt Q9PWW3 175-400); assay: flow cytometry, S-HBs-transfected 293-F cells
T4 construct: also called genotype B S-HBs

Row | Binder | % of bound S-HBs-expressing cells
28 | B1 | 83%
29 | B2 | 68%
30 | B3 | 70%
31 | B4 | 64%
32 | B6 | 67%

molecular target: genotype D S-HBs mutant protein M133T (hepatitis B virus genotype D, UniProt P03138 164-389); assay: flow cytometry, S-HBs-transfected 293-F cells

Row | Binder | % of bound S-HBs-expressing cells
33 | B1 | 67%
34 | B2 | 62%
35 | B3 | 52%
36 | B4 | 54%
37 | B6 | 48%

molecular target: genotype D S-HBs mutant protein G145R (hepatitis B virus genotype D, UniProt P03138 164-389); assay: flow cytometry, S-HBs-transfected 293-F cells

Row | Binder | % of bound S-HBs-expressing cells
38 | B1 | 60%
39 | B3 | 17%
40 | B4 | 0%
41 | B6 | 0%

Molecular target: T5, consensus S-HBs protein of HBV genotype E (ConsHBAg_E) (hepatitis B virus genotype E (consensus), UniProt Q69603 174-399)
T5 construct: also called genotype E S-HBs
T5 chain: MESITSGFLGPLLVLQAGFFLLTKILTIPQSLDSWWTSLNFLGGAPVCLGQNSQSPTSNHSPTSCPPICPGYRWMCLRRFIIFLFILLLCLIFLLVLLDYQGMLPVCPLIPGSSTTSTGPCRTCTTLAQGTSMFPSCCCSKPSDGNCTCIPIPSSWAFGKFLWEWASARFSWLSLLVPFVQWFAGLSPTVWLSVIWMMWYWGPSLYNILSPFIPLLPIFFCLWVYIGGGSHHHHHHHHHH
Assay: flow cytometry, S-HBs-transfected 293-F cells

Row | Binder | % of bound S-HBs-expressing cells
42 | B1 | 85%
43 | B2 | 71%
44 | B3 | 66%
45 | B4 | 68%
46 | B6 | 65%

molecular target: T6, consensus S-HBs protein of HBV genotype F (ConsHBAg_F) (hepatitis B virus genotype F (consensus), UniProt Q05496 175-400); assay: flow cytometry, S-HBs-transfected 293-F cells
T6 construct: also called genotype F S-HBs
T6 sequence (Q05496 175-400, tags left off): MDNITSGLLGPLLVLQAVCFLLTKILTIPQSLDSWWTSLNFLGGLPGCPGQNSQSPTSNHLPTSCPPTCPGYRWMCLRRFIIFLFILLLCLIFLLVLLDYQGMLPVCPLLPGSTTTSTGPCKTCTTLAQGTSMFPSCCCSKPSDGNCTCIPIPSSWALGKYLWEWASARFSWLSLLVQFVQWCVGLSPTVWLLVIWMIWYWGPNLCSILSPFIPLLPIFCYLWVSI

Row | Binder | % of bound S-HBs-expressing cells
47 | B1 | 73%
48 | B2 | 68%
49 | B3 | 58%
50 | B4 | 66%
51 | B5 | 46%
52 | B6 | 58%

molecular target: T7, consensus S-HBs protein of HBV genotype C (ConsHBAg_C) (hepatitis B virus genotype C (consensus), UniProt P03140 175-400); assay: flow cytometry, S-HBs-transfected 293-F cells
T7 construct: also called genotype C S-HBs

Row | Binder | % of bound S-HBs-expressing cells
53 | B1 | 82%
54 | B2 | 76%
55 | B3 | 67%
56 | B4 | 72%
57 | B5 | 1%
58 | B6 | 67%

molecular target: genotype D S-HBs mutant protein T126A (hepatitis B virus genotype D, UniProt P03138 164-389); assay: flow cytometry, S-HBs-transfected 293-F cells

Row | Binder | % of bound S-HBs-expressing cells
59 | B1 | 71%
60 | B2 | 70%
61 | B3 | 60%
62 | B4 | 55%
63 | B6 | 53%

Molecular target: T8, consensus S-HBs protein of HBV genotype I (ConsHBAg_I) (hepatitis B virus genotype I (consensus), UniProt P31873 175-400)
T8 construct: also called genotype I S-HBs
T8 chain: T5 chain with S3N, R122K, L127P, T131N, F134Y, S140T, S143T, G159A, F161Y, A184V
Assay: flow cytometry, S-HBs-transfected 293-F cells

Row | Binder | % of bound S-HBs-expressing cells
64 | B1 | 71%
65 | B2 | 64%
66 | B3 | 54%
67 | B4 | 52%
68 | B6 | 47%

molecular target: T9, consensus S-HBs protein of HBV genotype G (ConsHBAg_G) (hepatitis B virus genotype G (consensus), UniProt Q9IBI3 174-399); assay: flow cytometry, S-HBs-transfected 293-F cells
T9 construct: also called genotype G S-HBs

Row | Binder | % of bound S-HBs-expressing cells
69 | B1 | 83%
70 | B2 | 79%
71 | B3 | 64%
72 | B4 | 60%
73 | B6 | 58%

molecular target: T10, Ayw S-HBs protein (ayw HBsAg particles, Engerix-B (Ayw)) (hepatitis B virus, ayw subtype); assay: ELISA, AUC of binding curve; parameters: unit not given beside the values

Row | Binder | AUC (serotype binding)
74 | B1 | 37
75 | B2 | 34
76 | B3 | 35
77 | B4 | 36
78 | B5 | 33
79 | B6 | 37

molecular target: T11, Adw S-HBs protein (adw HBsAg particles, GenHevac (Adw)) (hepatitis B virus, adw subtype); assay: ELISA, AUC of binding curve; parameters: unit not given beside the values
T11 construct: also called GenHevac-B

Row | Binder | AUC (serotype binding)
80 | B1 | 36
81 | B2 | 35
82 | B3 | 36
83 | B4 | 35
84 | B5 | 8
85 | B6 | 35

molecular target: HBV genotype D viruses (produced in HepG2.2.15 cell culture supernatant) (hepatitis B virus genotype D); assay: cell-based or functional assay

Row | Binder | HBV-gD in vitro neutralization (IC50 µg/ml)
86 | B1 | 3.87e-06 µg/mL
87 | B2 | 2.53e-05 µg/mL
88 | B3 | 5e-08 µg/mL
89 | B4 | 2.51e-06 µg/mL
90 | B5 | 2.95e-06 µg/mL
91 | B7 | 3.96e-06 µg/mL
92 | B6 | 0.000544 µg/mL

molecular target: T10, Ayw S-HBs protein (ayw HBsAg particles, …); assay: ELISA on recombinant HBV vaccine particles

Row | Binder | EC50
93 | B1 | 5.1 ng/mL
94 | B2 | 12.3 ng/mL
95 | B3 | 3.5 ng/mL
96 | B4 | 9.5 ng/mL
97 | B5 | 4.8 ng/mL
98 | B6 | 5.7 ng/mL

molecular target: T11, Adw S-HBs protein (adw HBsAg particles, …); assay: ELISA on recombinant HBV vaccine particles

Row | Binder | EC50
99 | B1 | 27.7 ng/mL
100 | B2 | 26.1 ng/mL
101 | B3 | 4.9 ng/mL
102 | B4 | 8.9 ng/mL
103 | B5 | 8920 ng/mL
104 | B6 | 7.2 ng/mL
